Measured values from patent US20260167699A1 (Chugai, published 2026).

Key:
Test in all cases: SPR (Biacore), binding relative to GpH7-A5/GpH7-B3/GpL16-k0 x100;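 also: surface plasmon resonance at 25 °C, antibody captured on a sensor chip and soluble FcγR flowed over it in HBS-EP+ running buffer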
[1] = target: T1, FcγRIa (human, UniProt P12314 16-292)
T1 construct: extracellular domain; also called 1a
Protocol: (§1) The antibody of interest was analyzed for its interaction with FcγR using a BiaCore™ T100, BiaCore™ A100, or BiaCore™ 4000 surface plasmon resonance system (GE Healthcare Japan Corp.). The running buffer used was HBS-EP+ (GE Healthcare Japan Corp.). The assay temperature was set to 25° C. The sensor chips used were: a chip prepared by immobilizing antigenic peptides onto Series S Sensor Chip CM5 (GE Healthcare Japan Corp.) by the amine coupling method; a chip prepared by immobilizing antigenic peptides biotinylated in advance onto Series S Sensor Chip SA (certified) (GE Healthcare Japan Corp.) through their interaction; a chip prepared by immobilizing protein L (ACTIGEN, BioVision, Inc.) onto Series S Sensor Chip CM5 (GE Healthcare Japan Corp.); and a chip prepared by immobilizing protein A/G (Thermo Fisher Scientific K.K.) onto Series S Sensor Chip CM5 (GE Healthcare Japan Corp.). The antibody of interest was captured onto any of these chips and allowed to interact with FcγR diluted with a running buffer. The antibody captured on the chip was washed off through the reaction of 10 mM glycine-HCl (pH 1.5) to regenerate the chip, which was repetitively used.

[2] = target: T2, FcγRIIa(R) (human, UniProt P12318 34-217)
T2 construct: extracellular domain; also called FcγRIIa R type; 2aR
T2 sequence: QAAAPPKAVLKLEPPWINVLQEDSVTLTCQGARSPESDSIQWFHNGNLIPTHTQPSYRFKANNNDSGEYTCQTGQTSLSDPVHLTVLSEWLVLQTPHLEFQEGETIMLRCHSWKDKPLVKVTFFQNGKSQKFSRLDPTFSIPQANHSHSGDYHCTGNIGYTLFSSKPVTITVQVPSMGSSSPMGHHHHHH
Protocol: as §1

[3] = target: T3, FcγRIIa(H) (human, UniProt P12318 34-217)
T3 construct: extracellular domain; also called FcγRIIa H type; 2aH
T3 sequence: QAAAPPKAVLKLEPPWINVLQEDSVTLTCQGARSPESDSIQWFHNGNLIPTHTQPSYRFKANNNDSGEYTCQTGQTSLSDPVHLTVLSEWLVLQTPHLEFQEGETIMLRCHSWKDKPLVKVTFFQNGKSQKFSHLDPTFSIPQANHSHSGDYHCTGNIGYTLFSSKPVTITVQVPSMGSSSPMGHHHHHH
Protocol: as §1

[4] = target: T4, FcγRIIb (human, UniProt P31994 43-217)
T4 construct: extracellular domain; also called 2b
T4 sequence: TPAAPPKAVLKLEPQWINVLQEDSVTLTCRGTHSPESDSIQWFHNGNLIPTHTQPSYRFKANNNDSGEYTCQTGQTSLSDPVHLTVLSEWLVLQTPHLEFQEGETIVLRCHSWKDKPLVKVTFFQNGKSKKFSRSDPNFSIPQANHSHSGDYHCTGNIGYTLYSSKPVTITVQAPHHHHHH
Protocol: as §1

T1 sequence (P12314 other isoform, or with tags, fused parts or gaps): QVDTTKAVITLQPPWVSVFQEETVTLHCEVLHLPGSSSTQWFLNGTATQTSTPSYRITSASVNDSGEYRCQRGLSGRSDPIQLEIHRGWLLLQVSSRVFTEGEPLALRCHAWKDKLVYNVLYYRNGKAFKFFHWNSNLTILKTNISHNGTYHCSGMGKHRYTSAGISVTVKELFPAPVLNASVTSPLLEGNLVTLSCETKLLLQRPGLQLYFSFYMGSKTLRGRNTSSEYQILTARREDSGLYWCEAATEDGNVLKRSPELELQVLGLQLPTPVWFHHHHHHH

Binder	He/Con 1a [1] [%]	He/Con 2aR [2] [%]	He/Con 2aH [3] [%]	He/Con 2b [4] [%]
GpH7-A5/GpH7-B3 variant H268_03V/GpL16-k0 (antibody, human IgG1, kappa, heterodimerized IgG1, one H chain mutated; also called He Ab) heavy 1: not shown heavy 2: not shown light: DIVMTQSPLSLPVTPGEPASISCQASESLVHSNRNTYLHWYLQKPGQSPQLLIYKVSNRFSGVPDRFSGSGSGTDFTLKISRVEAEDVGVYYCSQNTHVPPTFGQGTKVEIERTVAAPSVFIFPPSDEQLKSGTASVVCLLNNFYPREAKVQWKVDNALQSGNSQESVTEQDSKDSTYSLSSTLTLSKADYEKHKVYACEVTHQGLSSPVTKSFNRGEC	103	117	100	120
GpH7-A5/GpH7-B3 variant H268_12R/GpL16-k0 (antibody, human IgG1, kappa, heterodimerized IgG1, one H chain mutated; also called He Ab) heavy 1: not shown heavy 2: not shown light: DIVMTQSPLSLPVTPGEPASISCQASESLVHSNRNTYLHWYLQKPGQSPQLLIYKVSNRFSGVPDRFSGSGSGTDFTLKISRVEAEDVGVYYCSQNTHVPPTFGQGTKVEIERTVAAPSVFIFPPSDEQLKSGTASVVCLLNNFYPREAKVQWKVDNALQSGNSQESVTEQDSKDSTYSLSSTLTLSKADYEKHKVYACEVTHQGLSSPVTKSFNRGEC	103	113	90.9	94.3
GpH7-A5/GpH7-B3 variant H268_13S/GpL16-k0 (antibody, human IgG1, kappa, heterodimerized IgG1, one H chain mutated; also called He Ab) heavy 1: not shown heavy 2: not shown light: DIVMTQSPLSLPVTPGEPASISCQASESLVHSNRNTYLHWYLQKPGQSPQLLIYKVSNRFSGVPDRFSGSGSGTDFTLKISRVEAEDVGVYYCSQNTHVPPTFGQGTKVEIERTVAAPSVFIFPPSDEQLKSGTASVVCLLNNFYPREAKVQWKVDNALQSGNSQESVTEQDSKDSTYSLSSTLTLSKADYEKHKVYACEVTHQGLSSPVTKSFNRGEC	106	137	114	168
GpH7-A5/GpH7-B3 variant H268_04F/GpL16-k0 (antibody, human IgG1, kappa, heterodimerized IgG1, one H chain mutated; also called He Ab) heavy 1: not shown heavy 2: not shown light: DIVMTQSPLSLPVTPGEPASISCQASESLVHSNRNTYLHWYLQKPGQSPQLLIYKVSNRFSGVPDRFSGSGSGTDFTLKISRVEAEDVGVYYCSQNTHVPPTFGQGTKVEIERTVAAPSVFIFPPSDEQLKSGTASVVCLLNNFYPREAKVQWKVDNALQSGNSQESVTEQDSKDSTYSLSSTLTLSKADYEKHKVYACEVTHQGLSSPVTKSFNRGEC	103	105	112	94.2
GpH7-A5/GpH7-B3 variant H268_07I/GpL16-k0 (antibody, human IgG1, kappa, heterodimerized IgG1, one H chain mutated; also called He Ab) heavy 1: not shown heavy 2: not shown light: DIVMTQSPLSLPVTPGEPASISCQASESLVHSNRNTYLHWYLQKPGQSPQLLIYKVSNRFSGVPDRFSGSGSGTDFTLKISRVEAEDVGVYYCSQNTHVPPTFGQGTKVEIERTVAAPSVFIFPPSDEQLKSGTASVVCLLNNFYPREAKVQWKVDNALQSGNSQESVTEQDSKDSTYSLSSTLTLSKADYEKHKVYACEVTHQGLSSPVTKSFNRGEC	104	102	91.2	93.4
GpH7-A5/GpH7-B3 variant H268_09D/GpL16-k0 (antibody, human IgG1, kappa, heterodimerized IgG1, one H chain mutated; also called He Ab) heavy 1: not shown heavy 2: not shown light: DIVMTQSPLSLPVTPGEPASISCQASESLVHSNRNTYLHWYLQKPGQSPQLLIYKVSNRFSGVPDRFSGSGSGTDFTLKISRVEAEDVGVYYCSQNTHVPPTFGQGTKVEIERTVAAPSVFIFPPSDEQLKSGTASVVCLLNNFYPREAKVQWKVDNALQSGNSQESVTEQDSKDSTYSLSSTLTLSKADYEKHKVYACEVTHQGLSSPVTKSFNRGEC	106	161	134	251
GpH7-A5/GpH7-B3 variant H268_10E/GpL16-k0 (antibody, human IgG1, kappa, heterodimerized IgG1, one H chain mutated; also called He Ab) heavy 1: not shown heavy 2: not shown light: DIVMTQSPLSLPVTPGEPASISCQASESLVHSNRNTYLHWYLQKPGQSPQLLIYKVSNRFSGVPDRFSGSGSGTDFTLKISRVEAEDVGVYYCSQNTHVPPTFGQGTKVEIERTVAAPSVFIFPPSDEQLKSGTASVVCLLNNFYPREAKVQWKVDNALQSGNSQESVTEQDSKDSTYSLSSTLTLSKADYEKHKVYACEVTHQGLSSPVTKSFNRGEC	107	159	126	242
GpH7-A5/GpH7-B3 variant H268_11K/GpL16-k0 (antibody, human IgG1, kappa, heterodimerized IgG1, one H chain mutated; also called He Ab) heavy 1: not shown heavy 2: not shown light: DIVMTQSPLSLPVTPGEPASISCQASESLVHSNRNTYLHWYLQKPGQSPQLLIYKVSNRFSGVPDRFSGSGSGTDFTLKISRVEAEDVGVYYCSQNTHVPPTFGQGTKVEIERTVAAPSVFIFPPSDEQLKSGTASVVCLLNNFYPREAKVQWKVDNALQSGNSQESVTEQDSKDSTYSLSSTLTLSKADYEKHKVYACEVTHQGLSSPVTKSFNRGEC	102	108	89.8	87.2
GpH7-A5/GpH7-B3 variant H268_15Y/GpL16-k0 (antibody, human IgG1, kappa, heterodimerized IgG1, one H chain mutated; also called He Ab) heavy 1: not shown heavy 2: not shown light: DIVMTQSPLSLPVTPGEPASISCQASESLVHSNRNTYLHWYLQKPGQSPQLLIYKVSNRFSGVPDRFSGSGSGTDFTLKISRVEAEDVGVYYCSQNTHVPPTFGQGTKVEIERTVAAPSVFIFPPSDEQLKSGTASVVCLLNNFYPREAKVQWKVDNALQSGNSQESVTEQDSKDSTYSLSSTLTLSKADYEKHKVYACEVTHQGLSSPVTKSFNRGEC	104	118	113	112
GpH7-A5/GpH7-B3 variant H268_08L/GpL16-k0 (antibody, human IgG1, kappa, heterodimerized IgG1, one H chain mutated; also called He Ab) heavy 1: not shown heavy 2: not shown light: DIVMTQSPLSLPVTPGEPASISCQASESLVHSNRNTYLHWYLQKPGQSPQLLIYKVSNRFSGVPDRFSGSGSGTDFTLKISRVEAEDVGVYYCSQNTHVPPTFGQGTKVEIERTVAAPSVFIFPPSDEQLKSGTASVVCLLNNFYPREAKVQWKVDNALQSGNSQESVTEQDSKDSTYSLSSTLTLSKADYEKHKVYACEVTHQGLSSPVTKSFNRGEC	104	91.4	85.9	71.2
GpH7-A5/GpH7-B3 variant H268_14T/GpL16-k0 (antibody, human IgG1, kappa, heterodimerized IgG1, one H chain mutated; also called He Ab) heavy 1: not shown heavy 2: not shown light: DIVMTQSPLSLPVTPGEPASISCQASESLVHSNRNTYLHWYLQKPGQSPQLLIYKVSNRFSGVPDRFSGSGSGTDFTLKISRVEAEDVGVYYCSQNTHVPPTFGQGTKVEIERTVAAPSVFIFPPSDEQLKSGTASVVCLLNNFYPREAKVQWKVDNALQSGNSQESVTEQDSKDSTYSLSSTLTLSKADYEKHKVYACEVTHQGLSSPVTKSFNRGEC	108	100	93.5	90.3
GpH7-A5/GpH7-B3 variant H268_06M/GpL16-k0 (antibody, human IgG1, kappa, heterodimerized IgG1, one H chain mutated; also called He Ab) heavy 1: not shown heavy 2: not shown light: DIVMTQSPLSLPVTPGEPASISCQASESLVHSNRNTYLHWYLQKPGQSPQLLIYKVSNRFSGVPDRFSGSGSGTDFTLKISRVEAEDVGVYYCSQNTHVPPTFGQGTKVEIERTVAAPSVFIFPPSDEQLKSGTASVVCLLNNFYPREAKVQWKVDNALQSGNSQESVTEQDSKDSTYSLSSTLTLSKADYEKHKVYACEVTHQGLSSPVTKSFNRGEC	101	67.2	85.8	69
